Laboratory results reported in patent US20240158515A1 (Regeneron, published 2024).

Tests used:
[1] = target: T1, full length human FGFR3b S249C on BaF3 cells (BAF3/FGFR3b_S249C, ACL11986) (human, UniProt P22607 23-808); test: cell-based or functional assay
[2] = target: full length human FGFR3b S249C/V557M on BaF3 cells (human, UniProt P22607 23-808); test: cell-based or functional assay
[3] = target: full length human FGFR3b S249C/V557L on BaF3 cells (human, UniProt P22607 23-808); test: cell-based or functional assay
[4] = target: full length human FGFR3b on BaF3 cells (BAF3/FGFR3b, ACL11991) (human, UniProt P22607 23-808); test: cell-based or functional assay
[5] = target: T1, full length human FGFR3b S249C on BaF3 …; test: cell-based or functional assay; remark: listed apart in the source
[6] = target: T2, human FGFR3b expressed with a C-terminal myc-myc-hexahistidine tag (hFGFR3b.mmH) (human); test: SPR Biacore, mAb captured on anti-hFc, 25C
T2 construct: also called REGN3152; monomeric human FGFR3b
T2 chain: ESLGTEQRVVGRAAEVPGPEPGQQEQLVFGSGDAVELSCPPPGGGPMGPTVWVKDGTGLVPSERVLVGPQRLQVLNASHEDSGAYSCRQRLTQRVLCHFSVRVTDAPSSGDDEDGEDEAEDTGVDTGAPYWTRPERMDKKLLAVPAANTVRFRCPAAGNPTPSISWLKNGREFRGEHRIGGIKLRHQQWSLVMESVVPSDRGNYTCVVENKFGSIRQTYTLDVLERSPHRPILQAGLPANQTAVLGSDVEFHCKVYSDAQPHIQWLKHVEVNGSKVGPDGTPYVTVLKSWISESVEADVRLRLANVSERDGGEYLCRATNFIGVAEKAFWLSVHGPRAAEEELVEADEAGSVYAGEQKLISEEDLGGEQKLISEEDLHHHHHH

[7] = target: T3, human FGFR3c expressed with a C-terminal myc-myc-hexahistidine tag (hFGFR3c.mmH) (human, UniProt P22607 23-375); test: SPR Biacore, mAb captured on anti-hFc, 25C; row marked NB
T3 construct: also called REGN3155; monomeric human FGFR3c

[8] = target: T4, human FGFR3b expressed with a C-terminal murine Fc tag (hFGFR3b.mFc) (human); test: competition ELISA: 4 nM hFGFR3b-mFc binding to plate-coated hFGF acidic
T4 construct: called dimeric; also called REGN3153; dimeric human FGFR3b
T4 chain: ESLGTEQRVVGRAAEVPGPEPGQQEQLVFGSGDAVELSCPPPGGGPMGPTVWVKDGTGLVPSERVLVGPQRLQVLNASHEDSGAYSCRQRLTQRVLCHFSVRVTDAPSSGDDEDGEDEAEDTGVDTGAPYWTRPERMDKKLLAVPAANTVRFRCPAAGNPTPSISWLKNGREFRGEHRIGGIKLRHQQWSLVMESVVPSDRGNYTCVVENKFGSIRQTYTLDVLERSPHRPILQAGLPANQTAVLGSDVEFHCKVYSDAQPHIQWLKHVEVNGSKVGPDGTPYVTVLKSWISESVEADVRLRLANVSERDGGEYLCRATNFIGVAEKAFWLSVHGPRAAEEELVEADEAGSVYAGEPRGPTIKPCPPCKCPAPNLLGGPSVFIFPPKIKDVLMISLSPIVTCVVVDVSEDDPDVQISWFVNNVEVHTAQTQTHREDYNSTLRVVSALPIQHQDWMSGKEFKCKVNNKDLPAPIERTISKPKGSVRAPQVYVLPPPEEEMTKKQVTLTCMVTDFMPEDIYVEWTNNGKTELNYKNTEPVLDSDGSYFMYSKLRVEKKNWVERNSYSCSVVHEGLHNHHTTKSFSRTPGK

B1: H4H30063P (antibody, human IgG4 S228P, kappa, V domains shown)
VH: QVQLQESGPGLVKPSETLSLTCTVSGDSINSYFWSWIRQLPGKELEWIGHIYSSGSTRYNPSLQSRVTISIDTSKNQFSLKLSSVTAADTAVYYCARGASAVDYWGQGTLVTVSS
VL: EIVLTQSPGTLSLSPGERATLSCRTSQSISSGYLAWYQQKPGQAPRLLIYGASRRATGIPDRFSGSGSGTDFTLTISRLEPEDFVVYYCQQYGSSPYTFGQGTKLEIKR
notes: HCVR 2, LCVR 10; also called REGN15684
IC50, growth of BaF3 cells expressing FGFR3 S249C (CellTiter-Glo) [1]: 1.36 nM | IC50, growth of BaF3 cells expressing FGFR3 S249C/V557M (CellTiter-Glo) [2]: 3.9 nM | IC50, growth of BaF3 cells expressing FGFR3 S249C/V557L (CellTiter-Glo) [3]: 4.3 nM | IC50 [M], BaF3 proliferation (CellTiter-Glo) with 1 nM FGF1 + 5 ug/ml heparin [4]: 6.06e-10 M | Max Blocking (%), BaF3 proliferation (CellTiter-Glo) with 1 nM FGF1 + 5 ug/ml heparin [4]: 98% | IC50 [M], BaF3 proliferation (CellTiter-Glo) with 1 nM FGF1 + 5 ug/ml heparin [5]: 5.08e-10 M | Max Blocking (%), BaF3 proliferation (CellTiter-Glo) with 1 nM FGF1 + 5 ug/ml heparin [5]: 93.4% | 90 nM hFGFR3b.mmH Bind (RU) [6]: 240 RU | Kd [6]: 0.222 nM | koff [6]: 3.83e-05 s⁻¹ | kon [6]: 172000 M⁻¹ s⁻¹ | t½ [6]: 5.03 h | 90 nM hFGFR3c.mmH Bind (RU) [7]: -19.6 RU | % Blocking at 200 nM mAb [8]: 95% | IC50 [8]: 2 nM
